Results reported in US20260176358A1 (JIANGSU HENGRUI PHARMACEUTICALS, published 2026).
Numbering of substitutions follows the chain as printed. Read-outs that look alike come from different tables or passages of the source. Values belong to the binder of their own block, whether it stands above or below them.

Experiments:
[1] = biological target: hTSLP (human, UniProt Q969D9 29-159); test: method of Test Example 4 of WO2021139758
[2] = biological target: hIL5 (human, UniProt P05113 20-134); test: method of Test Example 4 of WO2021139758
[3] = biological target: T1, PACAP38 (UniProt P18509 132-169, biotinylated in the ELISAs); test: cell-based or functional assay
T1 peptide (looked up): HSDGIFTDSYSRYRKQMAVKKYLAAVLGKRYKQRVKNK

[4] = biological target: T1, PACAP38; test: competition ELISA, biotinylated PACAP38 to coated VPAC1-Fc
Experimental: (§1) The plates were incubated for 1 h and washed, and a horseradish peroxidase-labeled streptavidin secondary antibody was then added. After incubation, color development was performed.

[5] = biological target: T1, PACAP38; test: competition ELISA, biotinylated PACAP38 to coated PAC1-Fc
Experimental: as §1

[6] = biological target: T1, PACAP38; test: competition ELISA, biotinylated PACAP38 to coated VPAC2-Fc
Experimental: as §1

[7] = biological target: T2, human CGRP (human, UniProt P06881 83-119); test: SPR, Biacore 8K, 25 C, biotinylated antibody on SA chip, 1:1 model
T2 peptide (looked up): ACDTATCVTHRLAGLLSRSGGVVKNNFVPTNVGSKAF
Experimental: First, the test antibodies ([…] for the mAbs and 4 μg/mL for the diabodies), biotinylated (indicated by Biotin-), were each coupled onto an SA biosensor chip. Then samples of the antigen human CGRP were sequentially injected in ascending order for 180 s, followed by dissociation. After the test was finished, fitting was performed using a 1:1 binding model.

[8] = biological target: T2, human CGRP; test: ELISA, coated CGRP
Experimental: (§2) In this test example, the abilities of the chimeric antibodies and humanized antibodies of C1 #, C9 #, C21 #, and C28 #to bind to human CGRP and rat CGRP were assessed using ELISAs. Plates were coated with […] human CGRP and rat CGRP, respectively, and blocked, and the antibodies, serially diluted, were then added. The plates were incubated for 1 h and washed, and a horseradish peroxidase-labeled anti-human Fc secondary antibody was then added. After incubation, color development was performed. […] The plates were incubated for 1 h and washed, and the antibodies, serially diluted, were then added. The plates were incubated for 1 h and washed, and a horseradish peroxidase-labeled streptavidin secondary antibody was then added. After incubation, color development was performed.

[9] = biological target: T3, rat CGRP (rat, UniProt P01256 83-119); test: ELISA, coated CGRP
T3 peptide (looked up): T2 peptide (looked up) with A1S, D3N, N25D, K35E
Experimental: as §2

[10] = biological target: CGRP; test: cell-based or functional assay
[11] = biological target: T3, rat CGRP; test: SPR, Biacore 8K, antibody captured on Protein A chip, 1:1 model
Experimental: A Protein A biosensor chip was used to affinity-capture IgG, and a molecule sample was then allowed to flow through the surface of the chip. Reaction signals were detected in real time using a Biacore 8K system to obtain association and dissociation curves. After the dissociation in each experimental cycle was complete, the biosensor chip was washed and regenerated 3 times with 50 mM NaOH. Data fitting was performed using a 1:1 model.

[12] = biological target: CGRP; test: cell-based or functional assay; remark: listed apart in the source
[13] = biological target: T4, PACAP27 (UniProt P18509 132-158, biotinylated in the ELISAs); test: ELISA, antibody on coated anti-human Fc, biotinylated peptide
T4 peptide (looked up): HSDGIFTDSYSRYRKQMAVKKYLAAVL
Experimental: (§3) Plates were coated with 1 μg/mL anti-human Fc and blocked, and the antibodies, serially diluted, were added. […] The plates were incubated for 1 h and washed, and a horseradish peroxidase-labeled streptavidin secondary antibody was then added. After incubation, color development was performed.

[14] = biological target: T1, PACAP38; test: as above
Experimental: as §3

[15] = biological target: T1, PACAP38; test: cell-based or functional assay

EC50 [1]: 2.18 nM
EC50 [2]: 17.7 nM
B1: HJ-7 (bispecific antibody)
chain 1: not shown
chain 2: DIQMTQSPSSVSASVGDRVTITCRASQDIANYLSWYQQKPGKSPKLLIYGTSNLEVGVPSRFSGSRSGTDFTLTISSLQPEDFATYYCLQDKEFPRTFGGGTKVEIKGGGGSSGAPRFLTRPKASVVSVGKDATLSCQIVGNPFPQVSWEKDKQPVTAGVRFRLAQDGDLYRLKILDLQLSDSGQYVCRARNAHGEAFACLGLQVDAEA
chain 3: EVQLVQSGAEVKKPGSSVKVSCKASGYTFSNYLIEWVRQAPGQGLEWIGVIDPGVGDTNYNENFKGRATLTADKSTSTAYIELSSLRSEDTAVYYCAREDNTGTAFDYWGQGTTVTVSSASTKGPSVFPLAPSSKSTSGGTAALGCLVKDYFPEPVTVSWNSGALTSGVHTFPAVLQSSGLYSLSSVVTVPSSSLGTQTYICNVNHKPSNTKVDKKVEPKSCDKTHTCPPCPAPEAAGGPSVFLFPPKPKDTLMISRTPEVTCVVVDVSHEDPEVKFNWYVDGVEVHNAKTKPREEQYNSTYRVVSVLTVLHQDWLNGKEYKCKVSNKALPAPIEKTISKAKGQPREPQVCTLPPSREEMTKNQVSLSCAVKGFYPSDIAVEWESNGQPENNYKTTPPVLDSDGSFFLVSKLTVDKSRWQQGNVFSCSVMHEALHNHYTQKSLSLSPGK
chain 4: SIVMTQTPLSLSVTPGQPASISCKASQSVSSDVTWYLQKPGQSPQLLIYYVSEHYTGVPDRFSGSGYGTDFTLKISRVEAEDVGVYYCQQHHRFPLTFGQGTKLEIKRTVAAPSVFIFPPSDEQLKSGTASVVCLLNNFYPREAKVQWKVDNALQSGNSQESVTEQDSKDSTYSLSSTLTLSKADYEKHKVYACEVTHQGLSSPVTKSFNRGEC

EC50 [1]: 3 nM
EC50 [2]: 9.46 nM
B2: HJ-11 (bispecific antibody)
chain 1: not shown
chain 2: B1 chain 2 with G108R, G109T, G110V, G111A, A115C
chain 3: B1 chain 3
chain 4: B1 chain 4

EC50 [1]: 3.33 nM
EC50 [2]: 18.7 nM
B3: HJ-8 (bispecific antibody)
chain 1: not shown
chain 2: B1 chain 2 with G108R, G109T, G110V, G111A, C137S, C188S
chain 3: B1 chain 3
chain 4: B1 chain 4

EC50 [1]: 3.18 nM
EC50 [2]: 10.9 nM
B4: HJ-9 (bispecific antibody)
chain 1: not shown
chain 2: B1 chain 2 with G108R, G109T, G110V, G111A, R121C, C137S, C188S
chain 3: B1 chain 3
chain 4: B1 chain 4

EC50 [1]: 3.17 nM
EC50 [2]: 20.8 nM
B5: HJ-10 (bispecific antibody)
chain 1: not shown
chain 2: B1 chain 2 with G108R, G109T, G110V, G111A
chain 3: B1 chain 3
chain 4: B1 chain 4

IC50, inhibition of cAMP production in SH-SY5Y cells [3]: 1.79 nM
IC50 [4]: 0.53 nM
IC50 [5]: 0.76 nM
IC50 [6]: 0.61 nM
B6: P96H1L1 (antibody, human IgG1, kappa, V domains shown)
VH: EVQLVQSGAEVKKPGATVKISCKASGFNIKDYYMHWVQQAPGKGLEWMGWIDPENDNTLYDPKFQDRVTITTDTSTNTAYMELSSLRSEDTAVYYCVFGVMTTVEGDFDYWGQGTTVTVSS
VL: ETVVTQEPSLTVSPGGTVTLTCRSSSGTVTTSNYANWVQQKPGQAFRGLIGGTNNRAPGAPARFSGSLLGGKAALTLSGVQPEDEAEYYCALWYSNHWVFGGGTKLTVLR

IC50, inhibition of cAMP production in SH-SY5Y cells [3]: 8.26 nM
IC50 [4]: 0.53 nM
IC50 [5]: 0.83 nM
IC50 [6]: 0.68 nM
B7: P96#-CHI (antibody, human IgG1, kappa, V domains shown)
VH: EVQLQQSGADLVRPGALVKLSCKASGFNIKDYYMHWVKQRPEQGLEWIGWIDPENGNTLYDPKFQDKASITTDTSSNTAYLQLSSLTSEDTAVYYCVFGVMTTVEGDFDYWGQGTALTVSS
VL: QAVVTQESALTTSPGETVTLTCRSSSGTVTTSNYANWVQEKPDHLFTGLIGGTNNRAPGAPARFSGSLIGDKAALTITGAQTEDEAIYFCALWYSNHWVFGGGTKLTVLR
notes: chimeric: murine variable regions fused to human constant regions; also called P96#-CH1

Kd [7]: 0.00381 nM
koff [7]: 1.92e-05 s⁻¹
kon [7]: 5.04e+06 M⁻¹ s⁻¹
EC50 [8]: 2.3 nM
EC50 [9]: 4.26 nM
IC50, inhibition of cAMP production in SK-N-MC cells [10]: 1.25 nM
Kd [11]: 0.103 nM
koff [11]: 0.000232 s⁻¹
kon [11]: 2.25e+06 M⁻¹ s⁻¹
IC50, inhibition of cAMP production in SK-N-MC cells [12]: 1.98 nM
B8: C21H2L1 (antibody, human IgG1, kappa, V domains shown)
VH: EVQLVQSGAEVKKPGASVKVSCKASGYTFTDYYMNWVRQAPGQRLEWIGDINPNQGGTNYNQKFKGRATLTVDKSASTAYMELSSLRSEDTAVYYCASIIIVPNYFDYWGQGTTVTVSS
VL: DIQMTQSPSSLSASVGDRVTITCKASQNVDTNVAWFQQKPGKAPKSLIYSASYRYSGVPSRFSGSGSGTDFTLTISSLQPEDFATYYCQQYNNYPYTFGGGTKVEIKR
notes: also called Biotin-C21H2L1

Kd [7]: 0.00479 nM
koff [7]: 2.41e-05 s⁻¹
kon [7]: 5.03e+06 M⁻¹ s⁻¹
EC50 [8]: 1.26 nM
EC50 [9]: 5.29 nM
IC50, inhibition of cAMP production in SK-N-MC cells [10]: 2.49 nM
Kd [11]: 0.0674 nM
koff [11]: 0.000139 s⁻¹
kon [11]: 2.06e+06 M⁻¹ s⁻¹
IC50, inhibition of cAMP production in SK-N-MC cells [12]: 1.61 nM
B9: C28H6L1 (antibody, human IgG1, kappa, V domains shown)
VH: B8 VH with I48M, Q55T, G57V, N59T, A68V, L70I, N104D
VL: B8 VL with L11V, D30G, T31S, F36Y, A43S, S46A, N93S
notes: also called Biotin-C28H6L1

Kd [7]: 0.00715 nM
koff [7]: 1.77e-05 s⁻¹
kon [7]: 2.48e+06 M⁻¹ s⁻¹
Kd [11]: 0.778 nM
koff [11]: 0.00116 s⁻¹
kon [11]: 1.5e+06 M⁻¹ s⁻¹
EC50 [13]: 0.28 nM
EC50 [14]: 0.15 nM
IC50, inhibition of cAMP production in SK-N-MC cells [12]: 2.66 nM
IC50, inhibition of cAMP production in SH-SY5Y cells [15]: 4.31 nM
B10: CP-1 (bispecific antibody)
heavy: EVQLVESGGGLVQPGGSLRLSCAASGFAFNNYDMSWVRQAPGKGLEWVATITGGGSYTWYPDSVKGRFTISRDNAKNSLYLQMNSLRAEDTAVYYCARLTGYDQAGAMDYWGQGTTVTVSSASTKGPSVFPLAPSSKSTSGGTAALGCLVKDYFPEPVTVSWNSGALTSGVHTFPAVLQSSGLYSLSSVVTVPSSSLGTQTYICNVNHKPSNTKVDKKVEPKSCEVQLVQSGAEVKKPGASVKVSCKASGYTFTDYYMNWVRQAPGQCLEWIGDINPNQGGTNYNQKFKGRATLTVDKSASTAYMELSSLRSEDTAVYYCASIIIVPNYFDYWGQGTTVTVSSGGGGSGGGGSGGGGSDIQMTQSPSSLSASVGDRVTITCKASQNVDTNVAWFQQKPGKAPKSLIYSASYRYSGVPSRFSGSGSGTDFTLTISSLQPEDFATYYCQQYNNYPYTFGCGTKVEIKGGGDKTHTCPPCPAPELLGGPSVFLFPPKPKDTLYITREPEVTCVVVDVSHEDPEVKFNWYVDGVEVHNAKTKPREEQYNSTYRVVSVLTVLHQDWLNGKEYKCKVSNKALPAPIEKTISKAKGQPREPQVYTLPPSRDELTKNQVSLTCLVKGFYPSDIAVEWESNGQPENNYKTTPPVLDSDGSFFLYSKLTVDKSRWQQGNVFSCSVMHEALHNHYTQKSLSLSPGK
light: DIVLTQSPDSLAVSLGERATINCKASQSVDYDGDSYMTWYQQKPGQPPKLLIYAASHLDSGIPDRFSGSGSGTDFTLTISSLQAEDVAVYYCQQSNEDPWTFGGGTKVEIKRTVAAPSVFIFPPSDEQLKSGTASVVCLLNNFYPREAKVQWKVDNALQSGNSQESVTEQDSKDSTYSLSSTLTLSKADYEKHKVYACEVTHQGLSSPVTKSFNRGEC
notes: Format 2+2, anti-PACAP Fab (P14H2L3) and anti-CGRP scFv (C21H5L3), IgG1 (YTE) Fc; also called Biotin-CP-1
